Values belong to the binder of their own block, whether it stands above or below them.
Legend:
histone H3 (unmodified) = histone H3 (unmodified) (Drosophila melanogaster, UniProt P02299)
[1] = target: histone H3 (K4 trimethylated) (Drosophila melanogaster, UniProt P02299)

Kd (histone H3 (unmodified)): ~600 nM
B1: Caf1 (protein)
chain: MVDRSDNAAESFDDAVEERVINEEYKIWKKNTPFLYDLVMTHALEWPSLTAQWLPDVTKQDGKDYSVHRLILGTHTSDEQNHLLIASVQLPSEDAQFDGSHYDNEKGEFGGFGSVCGKIEIEIKINHEGEVNRARYMPQNACVIATKTPSSDVLVFDYTKHPSKPEPSGECQPDLRLRGHQKEGYGLSWNPNLNGYLLSASDDHTICLWDINATPKEHRVIDAKNIFTGHTAVVEDVAWHLLHESLFGSVADDQKLMIWDTRNNNTSKPSHTVDAHTAEVNCLSFNPYSEFILATGSADKTVALWDLRNLKLKLHSFESHKDEIFQVQWSPHNETILASSGTDRRLHVWDLSKIGEEQSTEDAEDGPPELLFIHGGHTAKISDFSWNPNEPWIICSVSEDNIMQVWQMAENVYNDEEPEIPASELETNTA

Kd [1]: > 70000 nM
B2: Caf1 (protein)
chain: B1 chain
modifications: H3K4me3
